7 molecules from PMC11295463, “Prefoldins are novel regulators of the unfolded protein response in artemisinin resistant Plasmodium falciparum malaria [image fx3.gif]” (The Journal of Biological Chemistry, 2024) can be followed below.

The labels stand for the following.
B2: recombinant PfPFD3 (6x-His-PfPFD3) (natural protein)
chain: MSFDDLTDNTKSVRNIPGAKFIEHVTEFLQNKNEESILRLARELLLKYKFMEHAFVSRQINTQKKIPELKDALRVVQLLEKRKKIKEKKNLETFFPVEESLYARGIVQKTDKILLWLGANVMVEFPFDEATDLLNQHLERAINLSQEMDNELLWLHEQITTTEINISRIHNYIELKKGMMGKEVDKKTEQVN
modifications: RED-NHS dye label where it was the labelled protein in MST
notes: Prefoldin subunit 3 of P. falciparum 3D7, PF3D7_0718500; CDS amplified from Pf3D7 cDNA; Resolved at 24 kDa on SDS-PAGE; Unlabelled when titrated onto labelled PfPFD5; also called rPfPFD3; Prefoldin subunit 3; source: E. coli BL21 (λDE3), pET-28a(+), purified (Ni-NTA)
B5: recombinant PfPFD6 (6x-His-PfPFD6) (natural protein)
chain: MSQEKISEIIKDISALKTSCEKLNSQLDELITQKVENEMLLEEVKVLEDDSVLHKLVGLVLVKEEKSKCYDTISRRLQYITGEIENRKKVITNSEEKLRKLFSDLEAHAGQRKIPVPQA
notes: Prefoldin subunit 6 of P. falciparum 3D7, PF3D7_0512000; CDS amplified from Pf3D7 cDNA; Resolved at 16 kDa on SDS-PAGE; also called rPfPFD6; Prefoldin subunit 6; source: E. coli BL21 (λDE3), pET-28a(+), purified (Ni-NTA)

The target in assay [1] is T1, PfPFD3 (Prefoldin subunit 3, PF3D7_0718500) (Plasmodium falciparum, UniProt Q8IBR6).
T1 construct: recombinant 6x-His-PfPFD3 (CDS in pET-28a(+)), RED-NHS labelled; with PfPFD1 (PF3D7_1107500)
The assay can be described thus: competitive microscale thermophoresis: labelled PfPFD3-PfPFD1 complex titrated with BPD. In kind it is binding. (Microscale thermophoresis detects binding through changes in fluorescence in a small temperature gradient.)

The target of assay [2] is T2, recombinant PfPFD5 (6x-His-PfPFD5) (P. falciparum 3D7, UniProt Q8II82 1-248, RED-NHS dye label (labelled protein in MST)).
T2 construct: Prefoldin subunit 5 of P. falciparum 3D7, PF3D7_1128100; CDS amplified from Pf3D7 cDNA; Resolved at 30 kDa on SDS-PAGE; also called rPfPFD5; Prefoldin subunit 5; source: E. coli BL21 (λDE3), pET-28a(+), purified (Ni-NTA)
T2 sequence: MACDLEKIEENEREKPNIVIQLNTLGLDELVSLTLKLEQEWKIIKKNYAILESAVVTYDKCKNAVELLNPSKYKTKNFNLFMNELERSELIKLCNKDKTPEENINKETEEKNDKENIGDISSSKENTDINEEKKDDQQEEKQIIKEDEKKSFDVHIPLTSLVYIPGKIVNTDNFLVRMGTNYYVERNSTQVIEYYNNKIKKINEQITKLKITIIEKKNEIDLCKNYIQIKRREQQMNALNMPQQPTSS
The assay can be described thus: MST; Monolith NT.115; PfPFD3 or PfPFD5 labelled with RED-NHS dye, titrated with the other PfPFD subunits; 1× PBS pH 7.5, 0.01% tween-20; 10 min at room temperature; steady-state analysis. Conditions: both partners purified.

Assay [3] concerns the target B2. Described as above. Conditions: both partners purified.
Assay [4] has as its target B5. The assay can be described thus: SPR; AutoLab ESPRIT; recombinant PfK13 (20 μM) immobilised on a gold chip by amine coupling; PfPFD6 injected at 25 nM to 5 μM; PBS; two-state conformational change model, KD by the Integrated Rate Law equation. The conditions noted are these: both partners purified. Background: SPR reads the build-up and loss of mass on a sensor chip optically.

In assay [1], `OC(CCN1CCCCC1)(c1ccccc1)C1CC2C=CC1C2` (centres unmarked) [BPD, 1-{bicyclo[2.2.1]hept-5-en-2-yl}-1-phenyl-3-(piperidin-1-yl)propan-1-ol] gave a Kd of 1990 nM.

B1: recombinant PfPFD2 (6x-His-PfPFD2) (natural protein)
chain: METKSNVESPNISEPKESKLTYEQIEKDRVQLVSKIEELYQDVVEHKLVLEALENVPSDRRCYRMVGEVLVERTVGEIKPALMDHKNKVEQVIAECQKQLDQKNNEISNFIKSAKAGNLPGGIINGNPSEDTNNLNDKEKKSDGIIF
notes: Prefoldin subunit 2 of P. falciparum 3D7, PF3D7_1416900; CDS amplified from Pf3D7 cDNA; Resolved at 19 kDa on SDS-PAGE; also called rPfPFD2; Prefoldin subunit 2; source: E. coli BL21 (λDE3), pET-28a(+), purified (Ni-NTA)
Consider B1, for which the Kd in assay [2] worked out at 42.4 nM; in assay [3] it was 682 nM.

Consider B2, for which the Kd in assay [2] turned out to be 1340 nM.

B3: recombinant PfPFD4 (6x-His-PfPFD4) (natural protein)
chain: MGDIKQNKYDLGLDMTVDDQKKIGKFTNLHYKEPLYEHKIKMMKENIMNIDSSIDEVSLAFDSNDIMLNIGDCFFKFDLDYIEEHLEDRKSEELANLNEMELEYKTKLNEKQKLKTELYAKFGNRIDLN
notes: Prefoldin subunit 4 of P. falciparum 3D7, PF3D7_0904500; CDS amplified from Pf3D7 cDNA; Resolved at 17 kDa on SDS-PAGE; also called rPfPFD4; Prefoldin subunit 4; source: E. coli BL21 (λDE3), pET-28a(+), purified (Ni-NTA)
Turning to B3, the Kd in assay [2] came out at 104 nM; in assay [3] it was 11300 nM.

B4: recombinant PfPFD1 (6x-His-PfPFD1) (natural protein)
chain: MSNLYDILGKAVINKEKKDEFQNLILKSEGFIDDVLHEKLRERQKKRDEILQDLFDMEILIENLKLFVNMKDKSEVETLTSLGCDSYVYADIINKNKIFIQLGYEFYLEMTLEEAIKFLKKKINLYEEKLSYWNKQISHVKAHIQILMRAISNLT
notes: Prefoldin subunit 1 of P. falciparum 3D7, PF3D7_1107500; CDS amplified from Pf3D7 cDNA; Resolved at 20 kDa on SDS-PAGE; also called rPfPFD1; Prefoldin subunit 1; source: E. coli BL21 (λDE3), pET-28a(+), purified (Ni-NTA)
Take B4: the Kd in assay [2] is 851 nM; in assay [3] it was 81.6 nM.

On to B5, for which the Kd in assay [2] came out at 324 nM; in assay [3], 1880 nM.

B6: recombinant PfK13 (∼43 kDa) (natural protein)
chain: TMIDINVGGAIFETSRHTLTQQKDSFIEKLLSGRHHVTRDKQGRIFLDRDSELFRIILNFLRNPLTIPIPKDLSESEALLKEAEFYGIKFLPFPLVFCIGGFDGVEYLNSMELLDISQQCWRMCTPMSTKKAYFGSAVLNNFLYVFGGNNYDYKALFETEVYDRLRDVWYVSSNLNIPRRNNCGVTSNGRIYCIGGYDGSSIIPNVEAYDHRMKAWVEVAPLNTPRSSAMCVAFDNKIYVIGGTNGERLNSIEVYEEKMNKWEQFPYALLEARSSGAAFNYLNQIYVVGGIDNEHNILDSVEQYQPFNKRWQFLNGVPEKKMNFGAATLSDSYIITGGENGEVLNSCHFFSPDTNEWQLGPSLLVPRFGHSVLIANI
modifications: Construct limits are not printed. The ~43 kDa band does not fit the full-length 726 aa protein (~83 kDa). It fits the BTB-Kelch propeller region, taken by convention from the BTB domain start at …
As to B6, in assay [4], the Kd is 174 nM.

Usually Kd stands for a measure of binding affinity in units of concentration.
